# Measurements: article PMC3936261 (Oncogene, 2013)
# Read-outs that look alike come from different tables or passages of the source.
# Assays:
# Experiment in all cases: other fluorescence titration
# [1] = target: T1, PTEN protein labeled with QSY 35 (UniProt P60484 1-403, QSY 35 (label as for the MKP proteins))
# [2] = target: T1, PTEN protein labeled with QSY 35; remark: listed apart in the source
# [3] = target: T1, PTEN protein labeled with QSY 35; remark: listed apart in the source
# T1 sequence (P60484 whole entry): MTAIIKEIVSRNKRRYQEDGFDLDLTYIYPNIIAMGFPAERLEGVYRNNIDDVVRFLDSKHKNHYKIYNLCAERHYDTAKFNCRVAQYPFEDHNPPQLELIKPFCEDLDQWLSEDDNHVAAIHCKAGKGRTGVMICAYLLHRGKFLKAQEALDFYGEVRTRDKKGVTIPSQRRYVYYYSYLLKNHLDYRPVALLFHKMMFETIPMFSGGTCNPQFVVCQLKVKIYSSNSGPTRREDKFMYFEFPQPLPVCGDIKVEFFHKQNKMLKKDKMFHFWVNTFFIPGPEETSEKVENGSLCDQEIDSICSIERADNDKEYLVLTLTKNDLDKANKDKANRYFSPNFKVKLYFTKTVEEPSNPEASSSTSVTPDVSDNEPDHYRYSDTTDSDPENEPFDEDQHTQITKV
binder,measurement,setting,value
"Prdx1 protein labeled with Alexa Fluor 546 (enzyme, UniProt Q06830 1-199, looked up, Alexa Fluor 546 on primary amines (succinimidylester of Alexa Fluor 546 carboxylic acid)) MSSGNAKIGHPAPNFKATAVMPDGQFKDISLSDYKGKYVVFFFYPLDFTFVCPTEIIAFSDRAEEFKKLNCQVIGASVDSHFCHLAWVNTPKKQGGLGPMNIPLVSDPKRTIAQDYGVLKADEGISFRGLFIIDDKGILRQITVNDLPVGRSVDETLRLVQAFQFTDKHGEVCPAGWKPGSDTIKPDVQKSKEYFSKQK",Kd,[1],220 ± 22.5 nM
same,Kd,[2],215 ± 19.5 nM
same,Kd,[3],247 nM
